Measured values reported in patent US20210371489A1, “SITE 2 SINGLE-CHAIN INSULIN ANALOGUES” (Case Western Reserve University, priority 2018, published 2021).
Where a chain is given by its changes, count along the chain named.

Legend:
[1] = system: diabetic Sprague-Dawley rats; details: diabetic (streptozotocin) Sprague-Dawley rats; cited from earlier work
[2] = biological target: insulin receptor (IR) (Homo sapiens, UniProt P06213); details: cited from earlier work
[3] = biological target: T1, FLAG epitope-tagged holoreceptor of human type 1 insulin-like growth factor receptor (human, UniProt P08069 31-1367, limits assumed); experiment: ratio of dissociation constants from competitive displacement of 125I-IGF-I on plate-captured FLAG-tagged hIGFR; relative to insulin lispro
T1 construct: mature; Holoreceptor captured on 96 well plates coated with anti-FLAG monoclonal antibody; The natural receptor is processed from one precursor into alpha and beta chains; also called hIGFR; IGF-1R
Source text: Cross-reactivity of the single-chain insulin analogues with IGF-1R was studied using a FLAG epitope-tagged holoreceptor to human type 1 insulin-like growth factor receptor (hIGFR) bound to 96 well plates coated with anti-FLAG monoclonal antibody. […] This is used as a marker for mitogenic potential, where less IGF-R affinity is interpreted as lower mitogenic potential.

2-F-PheB24-DKP-insulin: derivative of DKP-insulin containing ortho-monofluoro-phenylalanine at position B24
in vivo potency [1]: potency and duration of signaling are enhanced
receptor-binding affinity relative to KP-insulin [2]: ca. 35(±5) %

B1: single-chain insulin EA8, EA14, QA17, PE, EAGPRR (ligand)
chain: FVNQHLCGSHLVEALYLVCGERGFFYTPETEAGPRRGIVEQCCESICSLEQLQNYCN
notes: Single-chain insulin analogue (B domain, 6-residue C domain, A domain)
IGF1-R (Rel. Aff.) [3]: 11%

B2: single-chain insulin HA8, EA14, NB17, PE, EEGPRR (ligand)
chain: B1 chain with L17N, A32E, E44H, Q53E
IGF1-R (Rel. Aff.) [3]: 2%

B3: single-chain insulin EA8, EA14, RA17, PE, EAGPRR (ligand)
chain: B1 chain with Q53R
IGF1-R (Rel. Aff.) [3]: 25%

B4: single-chain insulin EA8, EA14, RA17, EP, EAGPRR (ligand)
chain: B1 chain with P28E, E29P, Q53R
IGF1-R (Rel. Aff.) [3]: 5%

B5: single-chain insulin HA8, EA14, QA17, PE, EAGPRR (ligand)
chain: B1 chain with E44H
IGF1-R (Rel. Aff.) [3]: 18%

B6: single-chain insulin HA8, EA14, FB17, PE, EEGPRR (ligand)
chain: B1 chain with L17F, A32E, E44H, Q53E
IGF1-R (Rel. Aff.) [3]: 16%
